Results taken from patent publication US20260043041A1, “HSL PROTEIN, GENE, VECTOR, CELL, COMPOSITION AND USE THEREOF, AND METHOD FOR IMPROVING HERBICIDE RESISTANCE OF CROPS” (CENTRAL CHINA NORMAL UNIVERSITY, priority 2022, published 2026).
Substitutions are numbered along the chain they refer to. Names may count otherwise. “Also recorded” adds a separate entry of the source.

B1: OsHSL1_I335F: SEQ ID NO.1 with the isoleucine at site 335 mutated to phenylalanine (protein, listed as Oryza sativa)
chain: MADESWRTPAIVQELAAAGVEEPPSRYVLGEKDRSDELVAAELPEPIPVVDLSRLAGADEAAKLRAALQNWGFFLLTNHGVETSLMDDVLNLAREFFNQPIERKRKFSNLIDGKNFQVEGYGTDRVVTQDQILDWSDRLFLRVEPKEERNLAFWPDHPESFRDVLNEYASRTKRIRDDIVQAMSKLLGLDEDYFFDRLNKAPALARFNYYPPCPRPDLVFGVRPHSDGSLFTILLVDEDVGGLQIQRDGKWYNVQVTPNTLLINLGDTMEVLCNGIFRSPVHRVVTNAERERISLAMFYSVNDEKDIGPAAGLLDENRPARYRKVSVGEFRAGIFGKFSRRERYIDSLKI
B2: OsHSL1_F140H/L204F/F298L/I335A: SEQ ID NO.1 with F140 to histidine, L204 to phenylalanine, F298 to leucine, I335 to alanine (protein)
chain: B1 chain with F140H, L204F, F298L, F335A

Legend:
[1] = target: T1, rice OsHSL1 (SEQ ID NO: 1) mutant OsHSL1_I335F (Oryza sativa, UniProt A0A7G1K9G4, I335F); assay: Enzyme kinetic parameters with HPPD inhibitors as substrate (HPLC); type: biochemical; settings: compared with OsHSL1 wild type
T1 construct: isolated enzyme, HPLC assay
Excerpt: (§1) High Performance Liquid Chromatography (HPLC) was used to test OsHIS1 wild-type protein (the amino acid sequence of OsHIS1 wild-type is shown as SEQ ID NO 2, and the corresponding nucleotide sequence is shown as SEQ ID NO 21), the enzyme kinetic parameters of OsHSL1 wild-type protein and some OsHSL1 mutant proteins with higher reactivity and HPPD inhibitors, and the specific results are shown in Table 9-Table 12. […] Each sample was replicated three times. • e.

[2] = target: T2, rice OsHSL1 (SEQ ID NO: 1) mutant OsHSL1_L204F/F298L/I335A (Oryza sativa, UniProt A0A7G1K9G4, F298L/I335A/L204F); assay: as above; type: biochemical
T2 construct: isolated enzyme, HPLC assay; I335A may be a misprint of I335F
T2 sequence (A0A7G1K9G4 1-350 L204F/F298L/I335A): B1 chain with L204F, F298L, F335A
Excerpt: as §1

[3] = target: T3, rice OsHSL1 (SEQ ID NO: 1) mutant OsHSL1_F140H/L204F/F298L/I335A (Oryza sativa, UniProt A0A7G1K9G4, F140H/F298L/I335A/L204F); assay: as above; type: biochemical; settings: compared with OsHSL1 wild type; close to the OsHIS1 wild type
T3 construct: isolated enzyme, HPLC assay
T3 sequence (A0A7G1K9G4 entry or part of it F140H/L204F/F298L/I335A): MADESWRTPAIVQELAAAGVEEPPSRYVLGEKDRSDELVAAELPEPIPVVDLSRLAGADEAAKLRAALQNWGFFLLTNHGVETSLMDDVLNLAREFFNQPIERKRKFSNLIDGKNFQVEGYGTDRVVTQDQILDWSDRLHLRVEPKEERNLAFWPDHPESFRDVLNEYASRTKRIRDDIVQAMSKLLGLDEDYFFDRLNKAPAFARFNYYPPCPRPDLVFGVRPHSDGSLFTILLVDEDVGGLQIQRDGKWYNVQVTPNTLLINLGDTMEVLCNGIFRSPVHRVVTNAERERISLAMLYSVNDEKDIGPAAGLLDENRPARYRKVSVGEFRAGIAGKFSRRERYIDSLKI
Excerpt: as §1

[4] = test system: OsHSL1 wild type T1 generation positive rice plants; assay: Herbicide resistance test, over-expression in rice (stem-leaf treatment); type: in vivo; settings: 2 g/mu and 8 g/mu
Experimental: (§2) Successfully overexpressed OsHSL1_F140H/L204F/F298L/I335A mutants and OsHSL1 wild type TO generation tissue culture seedlings were selected, cultivated and harvested, and then sown to offspring population T1 generation rice plants, and positive over-expression rice plants were identified.
(§3) OsHSL1_F140H/L204F/F298L/I335A mutant T1 generation positive rice plants and OsHSL1 wild-type T1 generation positive rice plants at 3 weeks of seedling age were treated with different concentrations of methyl-benquitrione aqueous solution on the Stem leaves, and OsHSL1 wild-type T1 generation positive rice plants as a control. The resistance of mutant OsHSL1_F140H/L204F/F298L/I335A to methyl-benquitrione was tested, and the specific results were shown in FIG. 1.

[5] = test system: OsHSL1_F140H/L204F/F298L/I335A mutant T1 generation positive rice plants; assay: as above; type: in vivo; settings: 2 g/mu and 8 g/mu, after 23 days of treatment
Experimental: as §2, §3

[6] = Catalytic activity of HSL proteins on HPPD inhibitors (HPLC, substrate consumption); type: biochemical; settings: 30° C., 10 h, protein 0.5 mg/mL; for Catalytic efficiency (%) Compound A: substrate Compound A 50 μM; for Catalytic efficiency (%) benzobicyclon technical: substrate benzobicyclon technical 50 μM; for Catalytic efficiency (%) Mesotrione: substrate mesotrione 50 μM; for Catalytic efficiency (%) methyl-benquitrione: substrate methyl-benquitrione 50 μM; for Catalytic efficiency (%) pyraquinate technical: substrate pyraquinate technical 50 μM; for Catalytic efficiency (%) tefuryltrione: substrate tefuryltrione 50 μM; for Catalytic efficiency (%) tembotrione: substrate tembotrione 50 μM
Experimental: (§4) Each sample was replicated three times. • e.
(§5) Control: refers to the addition of inhibitors to the reaction system, but not the addition of enzymes, which is regarded as the substrate surplus when the inhibitor is not catalyzed.
(§6) Sample: in the enzyme reaction system, the same volume and the same concentration (50 μM) of the inhibitor was added, and the catalytic efficiency of the enzyme to the inhibitor was observed.
(§7) Catalytic efficiency=(1−(peak area of substrate in sample)/(peak area of substrate in control))×100%.

[7] = type: biochemical; settings: for Catalytic efficiency (%) topramezone: substrate topramezone 50 μM, 30° C., 10 h, protein 0.5 mg/mL
Experimental: as §4, §5, §6, §7

[8] = Enzyme kinetic parameter study (HPLC, Michaelis-Menten fit); type: biochemical; settings: statement on Table 11
Excerpt: as §1

[9] = test system: T1 generation positive rice plants; assay: Herbicide resistance test of over-expression in rice (methyl-benquitrione stem-leaf treatment); type: in vivo; settings: conclusion from FIG. 1
Experimental: as §2, §3
FIG. 1 is a graph showing the sensitivity of OsHSL1_F140H/L204F/F298L/I335A mutant T1 generation positive rice plants and OsHSL1 wild type T1 generation positive rice plants to the HPPD inhibitor methyl-benquitrione.

| Molecule | Catalytic efficiency (%) Compound A [6] [%] | Catalytic efficiency (%) benzobicyclon technical [6] [%] | Catalytic efficiency (%) Mesotrione [6] [%] | Catalytic efficiency (%) methyl-benquitrione [6] [%] | Catalytic efficiency (%) pyraquinate technical [6] [%] | Catalytic efficiency (%) tefuryltrione [6] [%] | Catalytic efficiency (%) tembotrione [6] [%] | Catalytic efficiency (%) topramezone [7] [%] | other results |
| --- | --- | --- | --- | --- | --- | --- | --- | --- | --- |
| Cc1c(C(=O)c2cnn(C)c2O)ccc(S(C)(=O)=O)c1C1=NOCC1 [topramezone] |  |  |  |  |  |  |  |  | catalytic efficiency (in words) [1]: obviously superior |
| Cc1nn(C)c(O)c1C(=O)c1ccc2c(c1C)c(=O)n(-c1cccc(Cl)c1)c(=O)n2C [pyraquinate technical, pyraquinate] |  |  |  |  |  |  |  |  | affinity and catalytic efficiency (in words) ([2]; compared with OsHIS1 wild type and OsHSL1 wild type): superior; Kcat ([2]; pH 7.0, 30° C., about 20 min): 0.00135 s⁻¹ |
| Cc1ccccc1-n1c(=O)c2c(C)c(C(=O)C3=C(O)CCCC3=O)ccc2n(C)c1=O [methyl-benquitrione] |  |  |  |  |  |  |  |  | affinity and catalytic efficiency (in words) [3]: better affinity and catalytic efficiency; albinism symptoms ([4]; after 16 days of treatment): almost all have albinism symptoms; albino symptoms ([4]; after 23 days of treatment): albino symptoms become very obvious; sensitivity (plant colour) [5]: basically keep normal green |
| B1 | 0 | 44 | 15 | 0 | 24 | 98 | 62 | 100 | degradation of topramezone (in words) [7]: can completely degrade topramezone; effect on topramezone degradation versus OsHSL1 wild type (in words) [7]: significantly better effect on topramezone degredation than OsHSL1 wild type; Catalytic efficiency (%) 30 min ([7]; topramezone degradation, reaction time 30 min): 97%; Catalytic efficiency (%) 60 min ([7]; topramezone degradation, reaction time 60 min): 100%; Catalytic efficiency (%) 120 min ([7]; topramezone degradation, reaction time 120 min): 100%; Catalytic efficiency (%) 300 min ([7]; topramezone degradation, reaction time 300 min): 100%; Catalytic efficiency (%) 600 min ([7]; topramezone degradation, reaction time 600 min): 100%; catalytic efficiency to topramezone versus wild type (in words) [8]: obviously superior to that of OsHSL1 wild type |
| B2 | 97 | 100 | 90 | 95 | 40 | 85 | 71 | 4 | resistance of over-expressing rice plants to methyl-benquitrione [9]: can improve the resistance; also recorded: obvious resistance |
